Results reported in patent US20070129307A1 (UNIVERSITY OF BRITISH COLUMBIA, published 2007).

T1: murine MHC class I molecule, H-2Kd (mouse, UniProt P01887 21-119; P01902 22-368, limits assumed)
T1 construct: whole, on cells; MHC class I molecule on the surface of RMAS-Kd cells
T1 sequence (MHC heavy, looked up): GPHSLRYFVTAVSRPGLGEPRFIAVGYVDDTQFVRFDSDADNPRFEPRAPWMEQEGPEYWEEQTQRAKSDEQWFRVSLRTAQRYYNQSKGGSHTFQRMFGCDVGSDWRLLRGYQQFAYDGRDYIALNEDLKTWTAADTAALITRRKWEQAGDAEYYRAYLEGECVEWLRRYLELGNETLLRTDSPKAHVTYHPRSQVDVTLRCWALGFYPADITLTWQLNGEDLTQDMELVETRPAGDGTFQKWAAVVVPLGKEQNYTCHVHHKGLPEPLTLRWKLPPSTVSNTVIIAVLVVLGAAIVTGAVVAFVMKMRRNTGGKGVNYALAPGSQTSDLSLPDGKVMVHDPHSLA
T1 sequence (b2m, looked up): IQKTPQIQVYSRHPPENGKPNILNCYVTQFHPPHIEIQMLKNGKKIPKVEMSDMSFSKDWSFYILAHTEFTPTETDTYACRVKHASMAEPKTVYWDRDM


What was measured:
[1] = molecular target: T2, human MHC class I molecule HLA-A*0201 (human); test: HLA-A2 stabilization on T2 cells loaded with 50 ug/ml peptide, anti-HLA-A2 (BB7.2) flow cytometry, MFI relative to CMV/A2
T2 construct: MHC class I molecule on the surface of T2 cells; also called HLA-A2; HLA-A201

[2] = molecular target: T2, human MHC class I molecule HLA-A*0201; test: peptide/HLA-A2 complex stability on T2 cells after peptide removal and emetine, 37 C, anti-HLA-A2 flow cytometry, normalized to CMV/HLA-A2
[3] = molecular target: T1, murine MHC class I molecule, H-2Kd; test: MHC class I stabilization assay on TAP-deficient RMAS-Kd cells, anti-H-2Kd-FITC, flow cytometry (background without peptide 6.07%)

relative HLA-A2 surface expression (% of CMV/A2 peptide binding) [1] | % of peptide/HLA-A2 complex dissociated in 4 hours [2] | % of RMAS-Kd cells staining positive for surface H-2Kd [3] | Binder
> 80% | ~20% |  | ALWMRLLPL [Insulin2]
> 80% |  |  | LLPPLLEHL [IA-2(180)]
 | < 5% |  | FLWSVFMLI [IGRP152]
 |  | 70.1% | RLLPLLALL (Peptide derived from the mouse insulin protein) [TV3]
 |  | 64.2% | KLPAVLLIL [murine IAPP precursor peptide mTV1]
 |  | 58.5% | KYPAVLLIL (Modified version of TV1 with leucine to tyrosine at position 2; also called MTV2) [TV2]
 | < 5% |  | KLQVFLIVL (also called HTV1; HTV-1) [IAPP5]
 | < 5% |  | FLFAVGFYL [IGRP215]
 | < 5% |  | FLIVLSVAL [IAPP9]
> 80% | ~20% |  | GMAELMAGL [Phogrin331]
> 80% | < 5% |  | SLSPLQAEL [IA-2(172)]
> 80% |  |  | SLAAGVKLL [IA-2(482)]
 | ~20% |  | RLLCALTSL [IGRP293]
 |  | 66.5% | KYQAVTTTL (also called negative control peptide TUM) [TUM]
